Reference: patent US20200199234A1 (published 2020)

T1: human CD19 on Nalm6 B cells (human, UniProt P15391 20-556)
T1 sequence: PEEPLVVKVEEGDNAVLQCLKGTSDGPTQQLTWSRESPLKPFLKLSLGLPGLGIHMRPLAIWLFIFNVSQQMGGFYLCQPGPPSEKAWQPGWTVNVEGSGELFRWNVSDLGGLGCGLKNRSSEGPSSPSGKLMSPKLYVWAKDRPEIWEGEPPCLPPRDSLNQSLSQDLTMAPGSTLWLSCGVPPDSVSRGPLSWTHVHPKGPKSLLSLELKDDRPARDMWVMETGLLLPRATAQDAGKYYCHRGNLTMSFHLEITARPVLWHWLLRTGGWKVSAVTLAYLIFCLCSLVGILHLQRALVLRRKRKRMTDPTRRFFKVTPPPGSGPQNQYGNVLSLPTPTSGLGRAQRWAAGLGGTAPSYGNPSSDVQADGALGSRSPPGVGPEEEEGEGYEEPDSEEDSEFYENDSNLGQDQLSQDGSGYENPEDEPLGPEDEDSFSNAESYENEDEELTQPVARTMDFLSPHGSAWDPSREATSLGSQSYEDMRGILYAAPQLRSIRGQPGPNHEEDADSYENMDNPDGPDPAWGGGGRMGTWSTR

B1: FAP (4B9) - CD28 (CD28(SA)_Variant 11) 1+1 (bispecific antibody, human IgG1, kappa, L234A L235A)
heavy 1: EIVLTQSPGTLSLSPGERATLSCRASQSVTSSYLAWYQQKPGQAPRLLINVGSRRATGIPDRFSGSGSGTDFTLTISRLEPEDFAVYYCQQGIMLPPTFGQGTKVEIKSSASTKGPSVFPLAPSSKSTSGGTAALGCLVKDYFPEPVTVSWNSGALTSGVHTFPAVLQSSGLYSLSSVVTVPSSSLGTQTYICNVNHKPSNTKVDKKVEPKSCDKTHTCPPCPAPEAAGGPSVFLFPPKPKDTLMISRTPEVTCVVVDVSHEDPEVKFNWYVDGVEVHNAKTKPREEQYNSTYRVVSVLTVLHQDWLNGKEYKCKVSNKALGAPIEKTISKAKGQPREPQVCTLPPSRDELTKNQVSLSCAVKGFYPSDIAVEWESNGQPENNYKTTPPVLDSDGSFFLVSKLTVDKSRWQQGNVFSCSVMHEALHNHYTQKSLSLSP
light 1: EVQLLESGGGLVQPGGSLRLSCAASGFTFSSYAMSWVRQAPGKGLEWVSAIIGSGASTYYADSVKGRFTISRDNSKNTLYLQMNSLRAEDTAVYYCAKGWFGGFNYWGQGTLVTVSSASVAAPSVFIFPPSDEQLKSGTASVVCLLNNFYPREAKVQWKVDNALQSGNSQESVTEQDSKDSTYSLSSTLTLSKADYEKHKVYACEVTHQGLSSPVTKSFNRGEC
heavy 2: not shown
light 2: not shown
B2: FAP (4B9) - CD28 (CD28(SA)_Variant 15) 1+1 (bispecific antibody, human IgG1, kappa, L234A L235A)
heavy 1: EIVLTQSPGTLSLSPGERATLSCRASQSVTSSYLAWYQQKPGQAPRLLINVGSRRATGIPDRFSGSGSGTDFTLTISRLEPEDFAVYYCQQGIMLPPTFGQGTKVEIKSSASTKGPSVFPLAPSSKSTSGGTAALGCLVKDYFPEPVTVSWNSGALTSGVHTFPAVLQSSGLYSLSSVVTVPSSSLGTQTYICNVNHKPSNTKVDKKVEPKSCDKTHTCPPCPAPEAAGGPSVFLFPPKPKDTLMISRTPEVTCVVVDVSHEDPEVKFNWYVDGVEVHNAKTKPREEQYNSTYRVVSVLTVLHQDWLNGKEYKCKVSNKALGAPIEKTISKAKGQPREPQVCTLPPSRDELTKNQVSLSCAVKGFYPSDIAVEWESNGQPENNYKTTPPVLDSDGSFFLVSKLTVDKSRWQQGNVFSCSVMHEALHNHYTQKSLSLSP
light 1: EVQLLESGGGLVQPGGSLRLSCAASGFTFSSYAMSWVRQAPGKGLEWVSAIIGSGASTYYADSVKGRFTISRDNSKNTLYLQMNSLRAEDTAVYYCAKGWFGGFNYWGQGTLVTVSSASVAAPSVFIFPPSDEQLKSGTASVVCLLNNFYPREAKVQWKVDNALQSGNSQESVTEQDSKDSTYSLSSTLTLSKADYEKHKVYACEVTHQGLSSPVTKSFNRGEC
heavy 2: not shown
light 2: not shown
B3: FAP (4B9) - CD28 (CD28(SA)_Variant 29) 1+1 (bispecific antibody, human IgG1, kappa, L234A L235A)
heavy 1: EIVLTQSPGTLSLSPGERATLSCRASQSVTSSYLAWYQQKPGQAPRLLINVGSRRATGIPDRFSGSGSGTDFTLTISRLEPEDFAVYYCQQGIMLPPTFGQGTKVEIKSSASTKGPSVFPLAPSSKSTSGGTAALGCLVKDYFPEPVTVSWNSGALTSGVHTFPAVLQSSGLYSLSSVVTVPSSSLGTQTYICNVNHKPSNTKVDKKVEPKSCDKTHTCPPCPAPEAAGGPSVFLFPPKPKDTLMISRTPEVTCVVVDVSHEDPEVKFNWYVDGVEVHNAKTKPREEQYNSTYRVVSVLTVLHQDWLNGKEYKCKVSNKALGAPIEKTISKAKGQPREPQVCTLPPSRDELTKNQVSLSCAVKGFYPSDIAVEWESNGQPENNYKTTPPVLDSDGSFFLVSKLTVDKSRWQQGNVFSCSVMHEALHNHYTQKSLSLSP
light 1: EVQLLESGGGLVQPGGSLRLSCAASGFTFSSYAMSWVRQAPGKGLEWVSAIIGSGASTYYADSVKGRFTISRDNSKNTLYLQMNSLRAEDTAVYYCAKGWFGGFNYWGQGTLVTVSSASVAAPSVFIFPPSDEQLKSGTASVVCLLNNFYPREAKVQWKVDNALQSGNSQESVTEQDSKDSTYSLSSTLTLSKADYEKHKVYACEVTHQGLSSPVTKSFNRGEC
heavy 2: not shown
light 2: not shown
B4: FAP (4B9) - CD28 (CD28(SA)_Variant 12) 1+1 (bispecific antibody, human IgG1, kappa, L234A L235A)
heavy 1: EIVLTQSPGTLSLSPGERATLSCRASQSVTSSYLAWYQQKPGQAPRLLINVGSRRATGIPDRFSGSGSGTDFTLTISRLEPEDFAVYYCQQGIMLPPTFGQGTKVEIKSSASTKGPSVFPLAPSSKSTSGGTAALGCLVKDYFPEPVTVSWNSGALTSGVHTFPAVLQSSGLYSLSSVVTVPSSSLGTQTYICNVNHKPSNTKVDKKVEPKSCDKTHTCPPCPAPEAAGGPSVFLFPPKPKDTLMISRTPEVTCVVVDVSHEDPEVKFNWYVDGVEVHNAKTKPREEQYNSTYRVVSVLTVLHQDWLNGKEYKCKVSNKALGAPIEKTISKAKGQPREPQVCTLPPSRDELTKNQVSLSCAVKGFYPSDIAVEWESNGQPENNYKTTPPVLDSDGSFFLVSKLTVDKSRWQQGNVFSCSVMHEALHNHYTQKSLSLSP
light 1: EVQLLESGGGLVQPGGSLRLSCAASGFTFSSYAMSWVRQAPGKGLEWVSAIIGSGASTYYADSVKGRFTISRDNSKNTLYLQMNSLRAEDTAVYYCAKGWFGGFNYWGQGTLVTVSSASVAAPSVFIFPPSDEQLKSGTASVVCLLNNFYPREAKVQWKVDNALQSGNSQESVTEQDSKDSTYSLSSTLTLSKADYEKHKVYACEVTHQGLSSPVTKSFNRGEC
heavy 2: not shown
light 2: DIQMTQSPSSLSASVGDRVTITCRASQNIYVWLNWYQQKPGKAPKLLIYKASNLYSGVPSRFSGSRSGTDFTLTISSLQPEDFATYYCQQGQTYPYTFGQGTKLEIKRTVAAPSVFIFPPSDRKLKSGTASVVCLLNNFYPREAKVQWKVDNALQSGNSQESVTEQDSKDSTYSLSSTLTLSKADYEKHKVYACEVTHQGLSSPVTKSFNRGEC
B5: Molecule 18C: CD19 (8B8-2B11)-CD28 (SA v8) 1+1 (bispecific antibody, human IgG1, kappa, L234A L235A)
heavy 1: not shown
heavy 2: DIVMTQTPLSLSVTPGQPASISCKSSQSLETSTGTTYLNWYLQKPGQSPQLLIYRVSKRFSGVPDRFSGSGSGTDFTLKISRVEAEDVGVYYCLQLLEDPYTFGQGTKLEIKSSASTKGPSVFPLAPSSKSTSGGTAALGCLVKDYFPEPVTVSWNSGALTSGVHTFPAVLQSSGLYSLSSVVTVPSSSLGTQTYICNVNHKPSNTKVDKKVEPKSCDKTHTCPPCPAPEAAGGPSVFLFPPKPKDTLMISRTPEVTCVVVDVSHEDPEVKFNWYVDGVEVHNAKTKPREEQYNSTYRVVSVLTVLHQDWLNGKEYKCKVSNKALGAPIEKTISKAKGQPREPQVCTLPPSRDELTKNQVSLSCAVKGFYPSDIAVEWESNGQPENNYKTTPPVLDSDGSFFLVSKLTVDKSRWQQGNVFSCSVMHEALHNHYTQKSLSLSP
light 1: not shown
light 2: QVQLVQSGAEVKKPGASVKVSCKASGYTFTDYIMHWVRQAPGQGLEWMGYINPYNDGSKYTEKFQGRVTMTSDTSISTAYMELSRLRSDDTAVYYCARGTYYYGPQLFDYWGQGTTVTVSSASVAAPSVFIFPPSDEQLKSGTASVVCLLNNFYPREAKVQWKVDNALQSGNSQESVTEQDSKDSTYSLSSTLTLSKADYEKHKVYACEVTHQGLSSPVTKSFNRGEC
notes: also called P1AF0175; CD19-CD28 v8
B6: Molecule 18A: CD19 (8B8-2B11)-CD28 (SA v29) 1+1 (bispecific antibody, human IgG1, kappa, L234A L235A)
heavy 1: not shown
heavy 2: DIVMTQTPLSLSVTPGQPASISCKSSQSLETSTGTTYLNWYLQKPGQSPQLLIYRVSKRFSGVPDRFSGSGSGTDFTLKISRVEAEDVGVYYCLQLLEDPYTFGQGTKLEIKSSASTKGPSVFPLAPSSKSTSGGTAALGCLVKDYFPEPVTVSWNSGALTSGVHTFPAVLQSSGLYSLSSVVTVPSSSLGTQTYICNVNHKPSNTKVDKKVEPKSCDKTHTCPPCPAPEAAGGPSVFLFPPKPKDTLMISRTPEVTCVVVDVSHEDPEVKFNWYVDGVEVHNAKTKPREEQYNSTYRVVSVLTVLHQDWLNGKEYKCKVSNKALGAPIEKTISKAKGQPREPQVCTLPPSRDELTKNQVSLSCAVKGFYPSDIAVEWESNGQPENNYKTTPPVLDSDGSFFLVSKLTVDKSRWQQGNVFSCSVMHEALHNHYTQKSLSLSP
light 1: not shown
light 2: QVQLVQSGAEVKKPGASVKVSCKASGYTFTDYIMHWVRQAPGQGLEWMGYINPYNDGSKYTEKFQGRVTMTSDTSISTAYMELSRLRSDDTAVYYCARGTYYYGPQLFDYWGQGTTVTVSSASVAAPSVFIFPPSDEQLKSGTASVVCLLNNFYPREAKVQWKVDNALQSGNSQESVTEQDSKDSTYSLSSTLTLSKADYEKHKVYACEVTHQGLSSPVTKSFNRGEC
notes: also called P1AE8002; CD19-CD28 v29
B7: Molecule 18B: CD19 (8B8-2B11)-CD28 (SA v15) 1+1 (bispecific antibody, human IgG1, kappa, L234A L235A)
heavy 1: not shown
heavy 2: DIVMTQTPLSLSVTPGQPASISCKSSQSLETSTGTTYLNWYLQKPGQSPQLLIYRVSKRFSGVPDRFSGSGSGTDFTLKISRVEAEDVGVYYCLQLLEDPYTFGQGTKLEIKSSASTKGPSVFPLAPSSKSTSGGTAALGCLVKDYFPEPVTVSWNSGALTSGVHTFPAVLQSSGLYSLSSVVTVPSSSLGTQTYICNVNHKPSNTKVDKKVEPKSCDKTHTCPPCPAPEAAGGPSVFLFPPKPKDTLMISRTPEVTCVVVDVSHEDPEVKFNWYVDGVEVHNAKTKPREEQYNSTYRVVSVLTVLHQDWLNGKEYKCKVSNKALGAPIEKTISKAKGQPREPQVCTLPPSRDELTKNQVSLSCAVKGFYPSDIAVEWESNGQPENNYKTTPPVLDSDGSFFLVSKLTVDKSRWQQGNVFSCSVMHEALHNHYTQKSLSLSP
light 1: not shown
light 2: QVQLVQSGAEVKKPGASVKVSCKASGYTFTDYIMHWVRQAPGQGLEWMGYINPYNDGSKYTEKFQGRVTMTSDTSISTAYMELSRLRSDDTAVYYCARGTYYYGPQLFDYWGQGTTVTVSSASVAAPSVFIFPPSDEQLKSGTASVVCLLNNFYPREAKVQWKVDNALQSGNSQESVTEQDSKDSTYSLSSTLTLSKADYEKHKVYACEVTHQGLSSPVTKSFNRGEC
notes: also called P1AE9040; CD19-CD28 v15

Experiments:
[1] = target: T2, human CD28 expressed on cells (CHO-k1 stably overexpressing human CD28; T cells in functional assays) (human, UniProt P10747 19-220); assay: cell-based or functional assay
[2] = target: T1, human CD19 on Nalm6 B cells; assay: flow cytometry on Nalm6 cells
[3] = target: T2, human CD28 expressed on cells (CHO-k1 …); assay: flow cytometry on CHOk1-CD28 cells

Binder	EC50 killing (nM), TCB-mediated killing of MV3 target cells [1] [nM]	EC50 [2] [nM]	EC50 [3] [nM]
B1	1.73		
B2	1.79		
B3	1.11		
B4	0.98		
B5		0.232	232
B6		0.274	6.65
B7		0.416	15.6
